Tests used:
[1] = target: A138 iCAPS (purified human CB1 with ICL3 native sequence replaced with protein 1 sequence, in lipid bilayer) (human) (UniProt P21554); test: ELISA, purified IgG on CB1 iCAPS
[2] = target: A139 iCAPS (purified human CB1 with ICL3 native sequence replaced with BRIL, in lipid bilayer) (human) (UniProt P21554); test: ELISA, purified IgG on CB1 iCAPS
A139 iCAPS (purified human CB1 with ICL3 native sequence replaced with BRIL, in lipid bilayer) (human), sequence (P21554 whole entry): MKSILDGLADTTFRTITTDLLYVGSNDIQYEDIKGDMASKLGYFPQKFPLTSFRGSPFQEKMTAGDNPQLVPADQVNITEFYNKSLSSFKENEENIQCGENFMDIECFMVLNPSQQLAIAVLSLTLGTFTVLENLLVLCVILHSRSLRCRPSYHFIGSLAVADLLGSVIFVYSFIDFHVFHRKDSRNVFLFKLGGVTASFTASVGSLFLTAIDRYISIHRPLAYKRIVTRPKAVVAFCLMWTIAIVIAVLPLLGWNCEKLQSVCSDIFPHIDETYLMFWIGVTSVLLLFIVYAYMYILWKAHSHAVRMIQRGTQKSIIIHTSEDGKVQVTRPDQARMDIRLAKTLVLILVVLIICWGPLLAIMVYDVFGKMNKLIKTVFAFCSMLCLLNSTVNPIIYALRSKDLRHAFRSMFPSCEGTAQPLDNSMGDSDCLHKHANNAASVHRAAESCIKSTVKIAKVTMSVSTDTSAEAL

A138 iCAPS (purified human CB1 with ICL3 native sequence replaced with protein 1 sequence, in lipid bilayer) (human), sequence (P21554 whole entry): as above

B1: PA2R3-P1F1 (chimeric) (antibody, V domains shown)
VH: EVQLQQSGAELMKPGASVKISCKATGYTFSSYWIEWVKQRPGHGLEWIGEILPGSGSTNYNEKFKGKATFTADTSSNTAYMQLSSLTSEDSAVYYCARGAWLLSYWYFDVWGAGTSVTVSS
VL: DIQMMQSTSSLSASLGDRVTISCSASQGISNYLNWYQQKPDGTVKLLIYYTSSLHSGVPSRFSGSGSGTQFSLKINSLQPEDFGSYYCQHHYGTPYTFGGGTKLELKR
For B1, which EC50 [1] is on record?
Its EC50 is 1.3 nM.

And the EC50 [2]?
Its EC50 is 1.1 nM.

B2: PA2LR3-P1G6 (chimeric) (antibody, V domains shown)
VH: EVQLQQSGAELVRPGSSVKISCKASGYAFSYYWMNWVKQRPGQGLEWIGQIYPGDGDTNYNGKFKGKATLTVDKSSSTAYMQLSSLTSEDSAVYFCARSHGNYFAYWGQGTLVTVSA
VL: DIVLSQSPAIMSASLGERVTMTCTASSSVSSSYLHWYQQKPGSSPKLWIYSTSNLASGVPARFSGSGSGTSYSLTISRMEAEDAATYYCQQWSSYPLTFGAGTKLELKR
With B2 as the binder, how does the EC50 [1] read?
The EC50 was 81 nM.

And the EC50 [2]?
Its EC50 is 35 nM.

B3: PA2LR3-P4G10 (chimeric) (antibody, V domains shown)
VH: EVQLQQFGAELVRPGSSVKISCKASGYAFSYYWMNWVKQRPGQGLEWIGQIYPGDGDTNYNGKFKGKATLTADKSSSTAYMQLSSLTSEDSAVYFCARSHGNYFAYWGQGTLVTVSA
VL: DIVLTQSPAIMSASLGERVTMTCTASSSVSSSYLHWYQQKPGSSPKLWIYSTSNLASGVPARFSGSGSGTSYSLTISSMEAEDAATYYCQQWSSNPLTFGAGTKLELKR
Which results are given for B3?
EC50 [1]: 1.19 nM; EC50 [2]: 1.35 nM

B4: PA2LR3-P3B8 (chimeric) (antibody, V domains shown)
VH: EVQLQQSGAELVRPGSSVKISCKASGFAFSNYWMNWVKQRPGQGLEWIGQIYPGDGDTNFNGKFKGRAILTADISSNTAYMQLSSLTSEDSAVYFCARSHGNYFPYWGQGTLVTVSA
VL: DIVMTQSPAIMSASLGERVTMTCTASSSVSSSYLHWYQQKPGSSPKLWIYGTSNLASGVPVRFSGSGSGTSYSLTISSMEAEDAATYYCQQWSSYPLTFGAGTKLELKR
With B4 as the binder, how does the EC50 [1] read?
The EC50 was 71 nM.

B5: PA2LR3-P4B1 (chimeric) (antibody, human IgG1, kappa, V domains shown)
VH: EVQLQQSGAELVRPGSSVKISCKASGFAFSNYWMNWVKQRPGQGLEWIGQIYPGDGDTNFNGKFKGRAILTADISSNTAYMQLSSLTSEDSAVYFCARSHGNYFPYWGQGTLVTVSA
VL: QIVLTQSPAIMSASLGERVTMTCTASSSVSSSYLHWYQQKPGSSPKLWIYSTSNLASGVPARFSGSGSGTSYSLTISSMEAEDAATYYCHQYHRSPLTFGAGTKLELKR
With B5 as the binder, how does the EC50 [1] read?
The EC50 was 1.28 nM.

What about the EC50 [2] of the same binder?
The EC50 was 1.41 nM.

B6: PA2LR3-P2B8 (chimeric) (antibody, V domains shown)
VH: EVQLQQSGAELVRPGSSVKISCKASGYAFSYYWMNWVKQRPGQGLEWIGQIYPGDGDTNYNGKFKGKATLTADKSSSTAYMQLSSLTSEDSAVYFCARSHGNYFAYWGQGTLVTVSA
VL: DIVMTQSPAIMSASLGERVTMTCTASSSISSSYLHWYQQKPGSSPKLWIYSTSNLASGVPARFSGSGSGTSYSLTISSMEAEDAATYYCHQYHRSPLAFGAGTKLELKR
What does the source list for B6?
EC50 [1]: 6.7 nM; EC50 [2]: 1.8 nM

B7: PA2LR3-P3B10 (chimeric) (antibody, V domains shown)
VH: EVQLQQSGAELVRPGSSVKISCKASGYAFSYYWMNWVKQRPGQGLEWIGQIYPGDGDTNYNGKFKGKATLTADKSSSTAYMQLSSLTSEDSAVYFCARSHGNYFPYWGQGTLVTVSA
VL: DIVITQSPAIVSASLGERVTMTCTASSSVSSSYLHWYQQKPGSSPKLWIYSTSNLASGVPARFSGSGSGTSYSLTISSMEAEDAATYYCQQWSSYPLTFGAGTKLEIKR
Which results are given for B7?
EC50 [1]: 1.4 nM; EC50 [2]: 0.78 nM

B8: PA2LR3-P4C6 (chimeric) (antibody, V domains shown)
VH: EVQLQQSGAELVRPGSSVKISCKASGYAFSYYWMNWVKQRPGQGLEWIGQIYPGDGDTNYNGKFKGKATLTADKSSSTAYMQLSSLTSEDSAVYFCARSHGNYFPYWGQGTLVTVSA
VL: DIVITQSPAIVSASLGERVTMTCTASSSVSSSYLHWYQQKPGSSPKLWIYSTSNLASGVPARFSGSGSGTSYSLTISSMEAEDAATYYCQQWSSYPLTFGAGTKLEIKR
Which EC50 [1] does the source give for B8 here?
The EC50 was 0.4 nM.

What about the EC50 [2] of the same binder?
Its EC50 is 0.4 nM.

B9: PA2LR3-P2D3 (chimeric) (antibody, human IgG1, kappa, V domains shown)
VH: EVQLQQSGAELVRPGSSVKISCKASGYAFSYYWMNWVKQRPGQGLEWIGQIYPGDGDTNYNGKFKGKATLTADKSSSTAYMQLSSLTSEDSAVYFCARSHGSYFAYWGQGTLVTVSA
VL: DIELAQSPASLAVSLGQRATISCRASESVDSYGNSFMHWYQQKPGQPPKLLIYLASNLESGVPARFSGSGSRADFTLTIDPVEADDAATYYCLQYASSPPTFGAGTKLEIKR
What does the source list for B9?
EC50 [1]: 4.9 nM; EC50 [2]: 2.6 nM

B10: PA2LR3-P2E5 (chimeric) (antibody, V domains shown)
VH: EVQLQQSGAELVRPGSSVKISCKASGYAFRDYWMNWVKQRPGQGLEWIGQIYPGDGATNYIGKFKGKATLTADKSSSTAYMQLSSLTSEDSAVYFCARSHGNYFPYWGHGTLVTVSA
VL: QIVLTQSPAIMSASLGERVTMTCTASSSVSSSYLHWYQQKPGSSPKLWIYSTSNLASGVPARFSGSGSGTSYSLTISSMEAEDAATYYCQQWSSYPLTFGAGTKLELKR
Which results are given for B10?
EC50 [1]: 10 nM; EC50 [2]: 3.2 nM

B11: PA2LR3-P1H4 (chimeric) (antibody, V domains shown)
VH: EVQLQQSGAELVRPGSSVKISCKASGYVFGNYWMNWVKQRPGQGLEWIGQIYPGDGDTNYNGKFKGKATLTADKSSSTAYMQLSSLTSEDSAVYFCARSHGNYFPYWGQGTLVTVSA
VL: QIVLTQSPAIMSASLGERVTMTCTASSSVSSSYLHWYQQKPGSSPKLWIYSTSNLASGVPARFSGSGSGTSYSLTISSMEAEDAATYYCQQWSSYPLTFGAGTKLELKR
How did the EC50 [1] turn out when B11 was run?
The EC50 was 21 nM.

What about the EC50 [2] of the same binder?
Its EC50 is 33.5 nM.
